What was measured:
[1] = target: the molecule itself; experiment: non-reducing SDS-PAGE with Western blot; 15% gel, non-reducing conditions, semi-dry transfer to nitrocellulose, anti-hBMP-2 rabbit IgG 1:2000; periplasmic fluid of W3110 grown at 30 °C and 42 °C
[2] = target: the molecule itself; experiment: non-reducing SDS-PAGE; 15% polyacrylamide gel, non-reducing conditions, Coomassie Brilliant Blue G-250 staining; bought reference preparation

Protein	stoichiometry N [1]	stoichiometry N [2]
periplasmic human bone morphogenetic protein-2 (hBMP-2 Biosintesis) (natural protein, UniProt P12643 283-396, looked up, authentic form without the initial methionine; monomer ~13 kDa, dimer ~26 kDa; also called authentic hBMP-2; our hBMP-2; source: E. coli W3110 with pλPL-DsbA-BMP-2, periplasmic fluid extracted by osmotic shock) QAKHKQRKRLKSSCKRHPLYVDFSDVGWNDWIVAPPGYHAFYCHGECPFPLADHLNSTNHAIVQTLVNSVNSKIPKACCVPTELSAISMLYLDENEKVVLKNYQDMVVEGCGCR	2	–
met-hBMP-2 reference preparation from GenScript (natural protein, human, initial methionine typical of the cytoplasmic product, told in words (met-hBMP-2); human bone morphogenetic protein-2; vendor declares dimeric form (~26 kDa); Commercial product; also called hBMP-2 GenScript; GenScript hBMP-2; source: bought: GenScript (cytoplasmic, E. coli-derived)) MQAKHKQRKRLKSSCKRHPLYVDFSDVGWNDWIVAPPGYHAFYCHGECPFPLADHLNSTNHAIVQTLVNSVNSKIPKACCVPTELSAISMLYLDENEKVVLKNYQDMVVEGCGCR	–	2
